Test results taken from publication PMC2756588.

T1: Boi2, P39969
T1 sequence (P39969 32-116, looked up): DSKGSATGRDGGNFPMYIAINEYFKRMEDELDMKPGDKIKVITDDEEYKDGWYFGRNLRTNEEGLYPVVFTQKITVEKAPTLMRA

T2: Bzz1-2, P38822
T2 sequence (P38822 568-633, looked up): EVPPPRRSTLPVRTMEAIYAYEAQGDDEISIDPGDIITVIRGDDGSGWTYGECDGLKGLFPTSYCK

T3: Bzz1-1, P38822
T3 sequence (P38822 478-572, looked up): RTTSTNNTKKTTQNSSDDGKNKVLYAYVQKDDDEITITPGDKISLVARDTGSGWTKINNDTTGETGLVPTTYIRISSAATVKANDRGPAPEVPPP

T4: Nbp2, Q12163
T4 sequence (Q12163 103-180, looked up): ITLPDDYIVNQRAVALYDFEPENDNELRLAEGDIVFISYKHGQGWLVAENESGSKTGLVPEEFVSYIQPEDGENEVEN

T5: Sla1-2, P32790
T5 sequence (P32790 60-140, looked up): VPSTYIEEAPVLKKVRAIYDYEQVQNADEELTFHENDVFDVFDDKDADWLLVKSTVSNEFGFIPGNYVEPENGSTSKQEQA

T6: Pex13, P80667
T6 sequence (P80667 295-386, looked up): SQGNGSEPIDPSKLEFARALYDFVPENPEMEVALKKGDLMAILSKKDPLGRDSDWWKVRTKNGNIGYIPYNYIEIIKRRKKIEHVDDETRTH

T7: Bud14, P27637
T7 sequence (P27637 247-328, looked up): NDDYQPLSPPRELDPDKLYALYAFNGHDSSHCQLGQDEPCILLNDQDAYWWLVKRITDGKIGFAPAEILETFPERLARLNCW

T8: Hse1, P38753
T8 sequence (P38753 208-285, looked up): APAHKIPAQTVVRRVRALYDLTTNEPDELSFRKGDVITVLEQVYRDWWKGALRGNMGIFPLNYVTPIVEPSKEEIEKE

T9: Boi1, P38041
T9 sequence (P38041 1-86, looked up): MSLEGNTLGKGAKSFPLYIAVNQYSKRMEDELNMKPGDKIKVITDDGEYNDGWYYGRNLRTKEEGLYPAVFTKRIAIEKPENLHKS

T10: Lsb1, P53281
T10 sequence (P53281 45-122, looked up): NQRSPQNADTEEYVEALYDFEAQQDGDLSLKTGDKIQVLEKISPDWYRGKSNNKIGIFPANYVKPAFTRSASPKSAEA

T11: Abp1, P15891
T11 sequence (P15891 535-592, looked up): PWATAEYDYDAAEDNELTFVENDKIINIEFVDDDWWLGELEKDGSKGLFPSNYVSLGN

T12: Hof1, Q05080
T12 sequence (Q05080 590-669, looked up): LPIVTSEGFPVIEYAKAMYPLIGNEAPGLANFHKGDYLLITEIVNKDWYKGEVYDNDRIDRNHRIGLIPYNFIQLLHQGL

T13: Sla1-3, P32790
T13 sequence (P32790 344-424, looked up): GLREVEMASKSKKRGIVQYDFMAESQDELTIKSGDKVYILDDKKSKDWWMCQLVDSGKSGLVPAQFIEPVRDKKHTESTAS

T14: Cdc25, P04821
T14 sequence (P04821 50-136, looked up): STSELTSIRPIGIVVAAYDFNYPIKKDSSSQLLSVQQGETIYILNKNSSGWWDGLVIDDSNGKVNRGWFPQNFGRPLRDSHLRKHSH

T15: Myo5, Q04439
T15 sequence (Q04439 1072-1160, looked up): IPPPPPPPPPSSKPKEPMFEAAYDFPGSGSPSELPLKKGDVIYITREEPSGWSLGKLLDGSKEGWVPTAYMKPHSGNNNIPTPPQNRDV

T16: Lsb4, P32793
T16 sequence (P32793 402-468, looked up): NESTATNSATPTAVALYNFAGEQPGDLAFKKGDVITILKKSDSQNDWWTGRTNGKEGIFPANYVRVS

T17: Cyk3, Q07533
T17 sequence (Q07533 1-83, looked up): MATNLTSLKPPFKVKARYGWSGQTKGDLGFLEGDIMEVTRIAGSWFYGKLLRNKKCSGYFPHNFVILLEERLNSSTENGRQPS

T18: Fus1, P11710
T18 sequence (P11710 432-512, looked up): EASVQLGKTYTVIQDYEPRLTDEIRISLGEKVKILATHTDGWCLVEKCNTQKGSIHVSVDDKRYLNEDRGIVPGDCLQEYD

T19: Pin3, Q06449
T19 sequence (Q06449 53-122, looked up): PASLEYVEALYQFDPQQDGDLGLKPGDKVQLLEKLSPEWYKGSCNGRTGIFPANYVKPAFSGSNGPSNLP

T20: Lsb3, P43603
T20 sequence (P43603 385-451, looked up): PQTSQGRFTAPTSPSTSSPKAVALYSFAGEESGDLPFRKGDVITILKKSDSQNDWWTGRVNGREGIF

T21: Bbc1, P47068
T21 sequence (P47068 1-78, looked up): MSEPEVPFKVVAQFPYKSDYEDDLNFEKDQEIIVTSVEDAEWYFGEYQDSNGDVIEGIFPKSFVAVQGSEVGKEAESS


What follows are binders tested against T1, Boi2, P39969 (assay: SPOT array). Conditions: median of control spots 1161.
Binder KNRKNLPTIPIRLSG has an SPOT intensity of 2. Work on RRSKSLPITPKSIFN yielded an SPOT intensity of 0. Work on IVNKPLPPLPVAGSS yielded an SPOT intensity of 0.

The binders below were run against T2, Bzz1-2, P38822 (assay: SPOT array). Conditions: median of control spots 4538.
KNRKNLPTIPIRLSG showed an SPOT intensity of 4. Binder RRSKSLPITPKSIFN has an SPOT intensity of 0. In the case of IVNKPLPPLPVAGSS, the SPOT intensity is reported as 2.

What follows are binders tested against T3, Bzz1-1, P38822 (assay: SPOT array). Conditions: median of control spots 4446.
Binder KNRKNLPTIPIRLSG has an SPOT intensity of 0. For RRSKSLPITPKSIFN, the SPOT intensity was 0. In the case of IVNKPLPPLPVAGSS, the SPOT intensity is reported as 0.

What follows are binders tested against T4, Nbp2, Q12163 (assay: SPOT array). Conditions: median of control spots 357.
KNRKNLPTIPIRLSG was tested, and the SPOT intensity was 47. RRSKSLPITPKSIFN gave an SPOT intensity of 0. In the case of IVNKPLPPLPVAGSS, the SPOT intensity is reported as 0.

Each binder was assayed against Sho1, P40073 (assay: SPOT array). Conditions: median of control spots 1148.
Sequence of Sho1, P40073 (P40073 287-367): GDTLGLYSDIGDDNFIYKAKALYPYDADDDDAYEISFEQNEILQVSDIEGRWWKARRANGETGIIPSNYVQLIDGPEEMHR
KNRKNLPTIPIRLSG showed an SPOT intensity of 1660. RRSKSLPITPKSIFN was tested, and the SPOT intensity was 1070. With IVNKPLPPLPVAGSS the SPOT intensity was 2240.

Each binder was assayed against T5, Sla1-2, P32790 (assay: SPOT array). Conditions: median of control spots 712.
KNRKNLPTIPIRLSG was tested, and the SPOT intensity was 0. RRSKSLPITPKSIFN was tested, and the SPOT intensity was 1. IVNKPLPPLPVAGSS was tested, and the SPOT intensity was 0.

Each binder was assayed against T6, Pex13, P80667 (assay: SPOT array). Conditions: median of control spots 1341.
KNRKNLPTIPIRLSG showed an SPOT intensity of 13. With RRSKSLPITPKSIFN the SPOT intensity was 8. IVNKPLPPLPVAGSS showed an SPOT intensity of 688.

These binders were tested against GST (assay: SPOT array). Conditions: median of control spots 978.
With KNRKNLPTIPIRLSG the SPOT intensity was 0. For RRSKSLPITPKSIFN, the SPOT intensity was 2. IVNKPLPPLPVAGSS gave an SPOT intensity of 0.

These binders were tested against Bem1-1, P29366 (assay: SPOT array). Conditions: median of control spots 4282.
Sequence of Bem1-1, P29366 (P29366 55-141): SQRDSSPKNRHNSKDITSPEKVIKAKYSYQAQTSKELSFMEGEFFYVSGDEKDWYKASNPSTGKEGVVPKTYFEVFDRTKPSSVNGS
Work on KNRKNLPTIPIRLSG yielded an SPOT intensity of 4. In the case of RRSKSLPITPKSIFN, the SPOT intensity is reported as 0. IVNKPLPPLPVAGSS was tested, and the SPOT intensity was 0.

What follows are binders tested against T7, Bud14, P27637 (assay: SPOT array). Conditions: median of control spots 956.
Binder KNRKNLPTIPIRLSG has an SPOT intensity of 3. RRSKSLPITPKSIFN was tested, and the SPOT intensity was 10. IVNKPLPPLPVAGSS showed an SPOT intensity of 0.

What follows are binders tested against T8, Hse1, P38753 (assay: SPOT array). Conditions: median of control spots 1727.
KNRKNLPTIPIRLSG was tested, and the SPOT intensity was 2. With RRSKSLPITPKSIFN the SPOT intensity was 0. Binder IVNKPLPPLPVAGSS has an SPOT intensity of 59.

Each binder was assayed against T9, Boi1, P38041 (assay: SPOT array). Conditions: median of control spots 1162.
Work on KNRKNLPTIPIRLSG yielded an SPOT intensity of 3. RRSKSLPITPKSIFN showed an SPOT intensity of 0. Binder IVNKPLPPLPVAGSS has an SPOT intensity of 1.

What follows are binders tested against T10, Lsb1, P53281 (assay: SPOT array). Conditions: median of control spots 388.
With KNRKNLPTIPIRLSG the SPOT intensity was 1220. Binder RRSKSLPITPKSIFN has an SPOT intensity of 0. IVNKPLPPLPVAGSS gave an SPOT intensity of 0.

The binders below were run against T11, Abp1, P15891 (assay: SPOT array). Conditions: median of control spots 935.
For KNRKNLPTIPIRLSG, the SPOT intensity was 333. For RRSKSLPITPKSIFN, the SPOT intensity was 117. In the case of IVNKPLPPLPVAGSS, the SPOT intensity is reported as 301.

The binders below were run against T12, Hof1, Q05080 (assay: SPOT array). Conditions: median of control spots 4086.
KNRKNLPTIPIRLSG was tested, and the SPOT intensity was 26. For RRSKSLPITPKSIFN, the SPOT intensity was 0. With IVNKPLPPLPVAGSS the SPOT intensity was 1440.

Each binder was assayed against T13, Sla1-3, P32790 (assay: SPOT array). Conditions: median of control spots 5475.
Work on KNRKNLPTIPIRLSG yielded an SPOT intensity of 55. Work on RRSKSLPITPKSIFN yielded an SPOT intensity of 21. IVNKPLPPLPVAGSS gave an SPOT intensity of 0.

The binders below were run against T14, Cdc25, P04821 (assay: SPOT array). Conditions: median of control spots 969.
Binder KNRKNLPTIPIRLSG has an SPOT intensity of 5. RRSKSLPITPKSIFN showed an SPOT intensity of 15. Binder IVNKPLPPLPVAGSS has an SPOT intensity of 0.

The binders below were run against T15, Myo5, Q04439 (assay: SPOT array). Conditions: median of control spots 471.
With KNRKNLPTIPIRLSG the SPOT intensity was 1. RRSKSLPITPKSIFN showed an SPOT intensity of 0. IVNKPLPPLPVAGSS was tested, and the SPOT intensity was 0.

Each binder was assayed against Bem1-2, P29366 (assay: SPOT array). Conditions: median of control spots 4347.
Sequence of Bem1-2, P29366 (P29366 139-227): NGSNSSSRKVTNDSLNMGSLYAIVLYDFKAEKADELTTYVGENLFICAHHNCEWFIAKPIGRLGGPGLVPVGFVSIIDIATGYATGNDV
Binder KNRKNLPTIPIRLSG has an SPOT intensity of 16. RRSKSLPITPKSIFN showed an SPOT intensity of 0. IVNKPLPPLPVAGSS showed an SPOT intensity of 0.

What follows are binders tested against T16, Lsb4, P32793 (assay: SPOT array). Conditions: median of control spots 397.
In the case of KNRKNLPTIPIRLSG, the SPOT intensity is reported as 103. In the case of RRSKSLPITPKSIFN, the SPOT intensity is reported as 0. Binder IVNKPLPPLPVAGSS has an SPOT intensity of 0.

What follows are binders tested against Rvs167, P39743 (assay: SPOT array). Conditions: median of control spots 2707.
Sequence of Rvs167, P39743 (P39743 419-482): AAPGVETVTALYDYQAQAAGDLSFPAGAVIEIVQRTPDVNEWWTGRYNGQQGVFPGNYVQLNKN
In the case of KNRKNLPTIPIRLSG, the SPOT intensity is reported as 86. In the case of RRSKSLPITPKSIFN, the SPOT intensity is reported as 0. With IVNKPLPPLPVAGSS the SPOT intensity was 0.

These binders were tested against T17, Cyk3, Q07533 (assay: SPOT array). Conditions: median of control spots 1451.
For KNRKNLPTIPIRLSG, the SPOT intensity was 1. With RRSKSLPITPKSIFN the SPOT intensity was 0. IVNKPLPPLPVAGSS gave an SPOT intensity of 0.

The binders below were run against T18, Fus1, P11710 (assay: SPOT array). Conditions: median of control spots 1200.
KNRKNLPTIPIRLSG gave an SPOT intensity of 24. In the case of RRSKSLPITPKSIFN, the SPOT intensity is reported as 26. IVNKPLPPLPVAGSS gave an SPOT intensity of 0.

What follows are binders tested against T19, Pin3, Q06449 (assay: SPOT array). Conditions: median of control spots 2171.
KNRKNLPTIPIRLSG gave an SPOT intensity of 15. In the case of RRSKSLPITPKSIFN, the SPOT intensity is reported as 4. IVNKPLPPLPVAGSS showed an SPOT intensity of 0.

Each binder was assayed against Myo3, P36006 (assay: SPOT array). Conditions: median of control spots 468.
Binder KNRKNLPTIPIRLSG has an SPOT intensity of 5. In the case of RRSKSLPITPKSIFN, the SPOT intensity is reported as 0. IVNKPLPPLPVAGSS showed an SPOT intensity of 0.

Each binder was assayed against T20, Lsb3, P43603 (assay: SPOT array). Conditions: median of control spots 406.
KNRKNLPTIPIRLSG gave an SPOT intensity of 25. RRSKSLPITPKSIFN was tested, and the SPOT intensity was 0. For IVNKPLPPLPVAGSS, the SPOT intensity was 2.

The binders below were run against T21, Bbc1, P47068 (assay: SPOT array). Conditions: median of control spots 796.
Work on KNRKNLPTIPIRLSG yielded an SPOT intensity of 25. In the case of RRSKSLPITPKSIFN, the SPOT intensity is reported as 15. In the case of IVNKPLPPLPVAGSS, the SPOT intensity is reported as 0.
